What was measured:
[1] = target: FcγR receptors on U937 cells; experiment: cell-based ELISA on U937 cells, detection with FITC-conjugated anti-human IgG Fc F(ab')2
[2] = target: murine high affinity IL-2Rαβγ on CTLL-2 cells (murine) (UniProt P01590); experiment: cell-based or functional assay
[3] = target: human IL-2Rαβγ on Kit-225 cells (human) (UniProt P01589); experiment: cell-based or functional assay
[4] = target: human intermediate affinity IL-2Rβγ on TF-1β cells (human) (UniProt P14784); experiment: cell-based or functional assay
Sequence of UniProt P14784 (P14784 27-551, chain 1 of 2): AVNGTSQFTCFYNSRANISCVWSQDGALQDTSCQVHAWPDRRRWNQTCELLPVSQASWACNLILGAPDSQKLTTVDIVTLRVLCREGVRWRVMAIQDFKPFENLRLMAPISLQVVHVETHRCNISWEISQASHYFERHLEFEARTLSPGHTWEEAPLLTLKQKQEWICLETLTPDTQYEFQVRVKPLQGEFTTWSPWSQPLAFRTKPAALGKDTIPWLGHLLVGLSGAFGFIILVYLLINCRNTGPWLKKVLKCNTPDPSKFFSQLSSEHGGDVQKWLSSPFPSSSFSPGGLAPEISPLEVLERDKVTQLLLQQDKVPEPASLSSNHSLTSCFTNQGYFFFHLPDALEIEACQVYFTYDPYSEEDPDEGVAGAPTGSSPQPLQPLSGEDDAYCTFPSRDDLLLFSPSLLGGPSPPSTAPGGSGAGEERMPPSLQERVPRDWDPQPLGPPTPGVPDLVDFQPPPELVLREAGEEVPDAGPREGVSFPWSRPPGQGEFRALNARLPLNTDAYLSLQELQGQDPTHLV
Sequence of UniProt P14784 (P31785 23-369, chain 2 of 2, further chain): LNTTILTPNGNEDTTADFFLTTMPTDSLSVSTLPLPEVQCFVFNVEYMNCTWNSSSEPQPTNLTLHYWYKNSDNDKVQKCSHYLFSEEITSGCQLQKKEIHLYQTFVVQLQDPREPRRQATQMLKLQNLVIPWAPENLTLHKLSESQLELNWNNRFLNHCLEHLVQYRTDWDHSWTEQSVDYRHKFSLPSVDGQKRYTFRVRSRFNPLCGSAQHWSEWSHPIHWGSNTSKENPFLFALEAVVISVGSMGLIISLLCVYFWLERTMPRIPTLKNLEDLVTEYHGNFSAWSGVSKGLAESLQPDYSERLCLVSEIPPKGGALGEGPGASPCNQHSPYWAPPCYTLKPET

Sequence of UniProt P01590 (P01590 22-268, chain 1 of 3): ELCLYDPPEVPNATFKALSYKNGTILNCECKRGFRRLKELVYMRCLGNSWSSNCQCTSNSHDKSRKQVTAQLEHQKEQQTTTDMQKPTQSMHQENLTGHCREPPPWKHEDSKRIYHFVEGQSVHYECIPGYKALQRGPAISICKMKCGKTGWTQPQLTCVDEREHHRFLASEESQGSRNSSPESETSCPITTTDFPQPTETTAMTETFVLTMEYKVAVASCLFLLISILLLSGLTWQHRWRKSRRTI
Sequence of UniProt P01590 (P16297 27-539, chain 2 of 3, further chain): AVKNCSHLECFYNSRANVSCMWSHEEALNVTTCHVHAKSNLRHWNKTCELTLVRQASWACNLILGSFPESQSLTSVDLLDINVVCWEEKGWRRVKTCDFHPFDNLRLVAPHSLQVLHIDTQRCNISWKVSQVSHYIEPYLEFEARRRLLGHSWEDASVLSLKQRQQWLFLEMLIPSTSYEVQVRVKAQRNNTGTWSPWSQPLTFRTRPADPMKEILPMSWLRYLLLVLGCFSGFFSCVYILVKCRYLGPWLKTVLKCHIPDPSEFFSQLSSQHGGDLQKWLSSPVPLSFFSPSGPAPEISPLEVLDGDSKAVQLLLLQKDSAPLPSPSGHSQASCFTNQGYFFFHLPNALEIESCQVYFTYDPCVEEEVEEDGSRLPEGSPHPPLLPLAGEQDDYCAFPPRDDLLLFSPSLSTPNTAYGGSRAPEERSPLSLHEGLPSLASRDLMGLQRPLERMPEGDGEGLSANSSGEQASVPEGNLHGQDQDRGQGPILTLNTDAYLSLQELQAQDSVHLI
Sequence of UniProt P01590 (P34902 23-369, chain 3 of 3, further chain): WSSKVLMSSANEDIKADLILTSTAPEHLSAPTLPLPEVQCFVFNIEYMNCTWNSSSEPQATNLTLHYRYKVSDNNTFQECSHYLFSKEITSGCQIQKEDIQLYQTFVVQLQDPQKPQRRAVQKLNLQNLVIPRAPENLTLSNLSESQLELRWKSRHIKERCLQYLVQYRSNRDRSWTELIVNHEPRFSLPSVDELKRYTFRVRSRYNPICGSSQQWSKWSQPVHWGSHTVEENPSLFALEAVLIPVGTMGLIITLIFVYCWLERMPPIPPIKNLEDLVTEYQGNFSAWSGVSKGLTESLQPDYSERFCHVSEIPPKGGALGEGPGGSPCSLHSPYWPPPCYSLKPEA
Sequence of UniProt P01589 (P01589 22-272, chain 1 of 3): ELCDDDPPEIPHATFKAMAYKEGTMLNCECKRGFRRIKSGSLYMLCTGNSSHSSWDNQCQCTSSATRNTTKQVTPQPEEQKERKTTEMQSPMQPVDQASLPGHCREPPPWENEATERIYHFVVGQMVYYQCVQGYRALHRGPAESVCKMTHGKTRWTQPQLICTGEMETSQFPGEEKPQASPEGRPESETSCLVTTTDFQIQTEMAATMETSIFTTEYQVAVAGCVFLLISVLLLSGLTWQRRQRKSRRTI
Sequence of UniProt P01589 (P14784 27-551, chain 2 of 3, further chain): as the sequence (P14784 27-551, chain 1 of 2) above
Sequence of UniProt P01589 (P31785 23-369, chain 3 of 3, further chain): as the sequence (P31785 23-369, chain 2 of 2, further chain) above

Substance | ED50, proliferation of CTLL-2 cells [2] | ED50 Ratio = ED50 [TF1-β]/ED50 [CTLL-2], cell proliferation [4] | ED50 Ratio TF-1β/Kit-225, cell proliferation [4] | also measured
huKS-ala-IL2 | 5 | 0.17 | 10.4 | EC50 [1]: 5 µg/mL; ED50, proliferation of Kit-225 cells [3]: 0.08
N-Glycanase treated huKS-IL2 | – | 0.45 | – | fold increase of the ED50 Ratio (TF-1β/CTLL-2) relative to huKS-IL2 [4]: 2 fold
N-Glycanase treated 14.18-IL2 | – | 0.21 | – | fold increase of the ED50 ratio (TF-1β/CTLL-2) compared to untreated 14.18-IL2 [4]: 3 fold
14.18-IL2 | – | 0.07 | – | –
huKS-IL2 | – | 0.11 | 4 | fold change of the ED50 ratio (TF-1β/CTLL-2) against free IL-2 [4]: 5 fold
huKS-ala-IL2(N88R) | 3 | 2300 | 52000 | ED50, proliferation of Kit 225 cells [3]: 0.13; shift in selectivity (ED50 ratio TF-1β/CTLL-2) relative to KS-ala-IL2 [4]: 20000 fold

From patent publication US20030166163A1
